Results taken from patent publication US20030212001A1 (THERATECHNOLOGIES, published 2003).

Target: R-14 protein (as present in the eye of newborn pigs)
Test: cell-based or functional assay

Row | Binder | IC50, dose response on basal intraocular pressure (IOP) of piglet
1 | HIICSPLR [peptide 1402] | 86.4 nM
2 | IFDSTECW [peptide 1405] | 342 nM
